Measured values: paper PMC4666138 (Molecular Biology of the Cell, 2015)

B1: FLAG-tagged UbxD8 (wild type) (natural protein)
chain: MAAPEERDLTQEQTEKLLQFQDLTGIESMDQCRHTLEQHNWNIEAAVQDRLNEQEGVPSVFNPPPSRPLQVNTADHRIYSYVVSRPQPRGLLGWGYYLIMLPFRFTYYTILDIFRFALRFIRPDPRSRVTDPVGDIVSFMHSFEEKYGRAHPVFYQGTYSQALNDAKRELRFLLVYLHGDDHQDSDEFCRNTLCAPEVISLINTRMLFWACSTNKPEGYRVSQALRENTYPFLAMIMLKDRRMTVVGRLEGLIQPDDLINQLTFIMDANQTYLVSERLEREERNQTQVLRQQQDEAYLASLRADQEKERKKREERERKRRKEEEVQQQKLAEERRRQNLQEEKERKLECLPPEPSPDDPESVKIIFKLPNDSRVERRFHFSQSLTVIHDFLFSLKESPEKFQIEANFPRRVLPCIPSEEWPNPPTLQEAGLSHTEVLFVQDLTDE

Experiments:
FLAG-tagged gp78 = FLAG-tagged gp78 (UniProt Q9UKV5 1-643); assay: co-IP
FLAG-tagged gp78, sequence (Q9UKV5 whole entry): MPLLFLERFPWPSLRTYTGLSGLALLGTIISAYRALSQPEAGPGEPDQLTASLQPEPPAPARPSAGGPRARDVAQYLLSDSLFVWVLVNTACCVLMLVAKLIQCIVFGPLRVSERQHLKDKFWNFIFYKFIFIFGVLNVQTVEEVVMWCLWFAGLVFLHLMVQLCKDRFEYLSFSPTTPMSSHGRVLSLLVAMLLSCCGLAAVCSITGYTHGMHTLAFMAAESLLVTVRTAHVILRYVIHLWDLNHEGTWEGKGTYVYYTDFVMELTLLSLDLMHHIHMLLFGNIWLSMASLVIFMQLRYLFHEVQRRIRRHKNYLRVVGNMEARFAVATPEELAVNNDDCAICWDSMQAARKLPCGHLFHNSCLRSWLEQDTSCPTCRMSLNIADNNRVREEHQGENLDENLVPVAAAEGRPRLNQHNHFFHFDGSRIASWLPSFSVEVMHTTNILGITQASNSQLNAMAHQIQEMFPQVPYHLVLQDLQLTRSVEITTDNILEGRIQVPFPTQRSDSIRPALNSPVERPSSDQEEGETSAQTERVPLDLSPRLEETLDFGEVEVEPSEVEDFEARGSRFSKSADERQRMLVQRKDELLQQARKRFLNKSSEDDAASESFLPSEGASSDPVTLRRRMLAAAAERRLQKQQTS

[1] = molecular target: B1; assay: co-IP

Row | Binder | stoichiometry N (FLAG-tagged gp78) | stoichiometry N [1]
1 | FLAG-tagged UBAC2 (recombinant, WT) (natural protein) HCQKLFVYDLHAVKNDFQIWRLICGRIICLDLKDTFCSSLLIYNFRIFERRYGSRKFASFLLGSWVLSALFDFLLIEAMQYFFGITAASNLPSGFLAPVFALFVPFYCSIPRVQVAQILGPLSITNKTLIYILGLQLFTSGSYIWIVAISGLMSGLCYDSKMFQVHQVLCIPSWMAKFFSWTLEPIFSSSEPTSEARIGMGATLDIQRQQRMELLDRQLMFSQFAQGRRQRQQQGGMINWNRLFPPLRQRQNVNYQGGRQSEPAAPPLEVSEEQVARLMEMGFSRGDALEALRASNNDLNVATNFLLQH | ~2 UBAC2 per gp78 | ~2 UBAC2 per UbxD8
2 | B1 | ~1 UbxD8 per gp78 | 
